Test results reported in patent US20210405026A1 (CENTRE NATIONAL DE LA RECHERCHE SCIENTIFIQUE, published 2021).

Legend:
[1] = target: T1, recombinant human CD32a (human, UniProt P12318 34-217); assay: ELISA on recombinant human CD32a, hybridoma screening
T1 sequence: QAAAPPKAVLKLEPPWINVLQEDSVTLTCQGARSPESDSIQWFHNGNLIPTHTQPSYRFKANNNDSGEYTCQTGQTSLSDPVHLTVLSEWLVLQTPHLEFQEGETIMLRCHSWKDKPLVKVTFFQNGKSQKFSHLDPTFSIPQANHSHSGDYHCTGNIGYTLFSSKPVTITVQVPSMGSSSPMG
From the text: (§1) In order to develop a specific murine monoclonal antibody against Human CD32a using a peptide antigen […] (SEQ ID NO: 40), different criteria were taken into account when designing the peptide: (1) The peptide must not include residue # 167 submitted to a strong polymorphism; (2) The peptide should be specific for CD32a vs CD32b as much as possible to avoid cross-reactivity of anti-CD32a antibody with human CD32b. Thus, a first step was the selection, design and synthesis of a relevant peptide. In order to enhance the immune response, the peptide to carrier conjugation technique (KLH) was used. The peptide thus produced was used in the immunization of 5 mice with an optimized protocol of 45 to 74 days (4-6 injections). The immune response was monitored by bleeding and titration tests (ELISA against the peptide and recombinant human CD32a and CD32b in parallel). Following the results of these tests, the spleen cells from the best mouse were fused with a mouse myeloma cell line. The culture of the hybridomas obtained was carried out in selective medium before the screens for the selection at the polyclonal stage of specific hybridomas against the peptide in ELISA (10× 96-well plates). Further screening for clones positive against recombinant human CD32a and CD32b was performed in parallel. […]

[2] = target: T2, recombinant human CD32b (human, UniProt P31994 46-217); assay: ELISA on recombinant human CD32b, hybridoma screening
T2 sequence: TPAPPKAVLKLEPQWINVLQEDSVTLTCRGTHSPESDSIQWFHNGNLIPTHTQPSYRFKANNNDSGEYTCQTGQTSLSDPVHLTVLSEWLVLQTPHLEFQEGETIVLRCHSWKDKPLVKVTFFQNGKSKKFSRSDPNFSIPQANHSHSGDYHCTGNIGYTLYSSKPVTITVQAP
From the text: as §1

B1: murine monoclonal anti-human CD32a antibody from hybridoma 8E2 (antibody, V domains shown)
VH: EVKLQESGPSLVQPGGSMNLSCVASGFTFSTHWMSWVRQSPEKGLEWIAEIRLKTDNYATHYAESVKGLFTISRDDSKSRLYLQMKSLRTEDSGIYYCTTHFAYWGQGTLV
VL: DVVMAQSPLSLPVSLGDQASISCRSSQSLVDSHGNTYLHWYLQKPGQSPKLLIYKVANRFSGVPDRFSGSGSGTDFTLKISRVEAEDLGVYFCSQSTHVPPVTFGAGTKLELK
notes: Tested as hybridoma supernatant in the ELISA screens
**Q.** Does B1 bind [1]?
**A.** binds

**Q.** Does B1 bind [2]?
**A.** no binding
